Results as given in publication PMC12216424.

How the values were obtained:
LbCas12a = LbCas12a (UniProt A0A5S8WF58 1-1228); experiment: thermal shift
[1] = target: LbCas12a (cryo-EM, assembled with crRNA) (UniProt A0A5S8WF58 1-1228); experiment: cryo-EM structure

Binder: GCGACTCGGTTCTTGCCTAAG (XNA, all 20 linkages phosphorothioate) [PS DNA1]
- binding result (LbCas12a): binds

Binder: UAAUUUCUACUAAGUGUAGAUGGGGUUUGAGGUCCAUUACA (structured_RNA) [12a-crRNA]
- binding result [1]: binds
